Measured values published in patent US5686592, “High-affinity oligonucleotide ligands to immunoglobulin E (IgE)” (NeXstar Pharmaceuticals, Inc.).

B1: D17.0 (ssDNA)
DNA: CTACCTACGATCTGACTAGCCAATGAGTGTACCACGTTTATCCGTCCCTCCTAGTGGCGTGCTTACTCTCATGTAGTTCC
B2: IGEL7.1 (ssRNA)
RNA: GGGAGGACGAUGCGGAGACGCGUGAACACUAGUAUCACAGUUAAGGAUGCGCGCAGACGACUCGCCCGA
modifications: 2'-NH2 on all C and U
B3: IGEL8.1 (ssRNA)
RNA: GGGAGGACGAUGCGGACCGCCCGUCGAGGGCUAGGCGUAGAGUCUAACCGGUGCCAGACGACUCGCCCGA
modifications: 2'-NH2 on all C and U
B4: IGEL25.1 (ssRNA)
RNA: GGGAGGACGAUGCGGGUGUGAAUGGUGUCGUGAGGACUUAUCAGGCUCCGUGGUGCAGACGACUCGCCCGA
modifications: 2'-NH2 on all C and U
B5: IGEL13.1 (ssRNA)
RNA: GGGAGGACGAUGCGGGACGGGGGCGGAAUCAUGCAUGUGAGCGAACAGAGAGAGAGCCGUGUAUCCAUUCGUGGUCAGACGACUCGCCCGA
modifications: 2'-NH2 on all C and U
B6: IGEL48.1 (ssRNA)
RNA: GGGAGGACGAUGCGGGAGUGGGGCGAUGAGAGAGAUCAGAGAACUAGAAGUGAUACAAAAUCUGAGGUUGUUGCGCAGACGACUCGCCCGA
modifications: 2'-NH2 on all C and U
B7: IGEL44.1 (ssRNA)
RNA: GGGAGGACGAUGCGGGUGCGGGGCGAGUAUAUGAAACUUGGCUUGGUAAUGAUCAGAAGUAGUGAGAACUGGGUGCAGACGACUCGCCCGA
modifications: 2'-NH2 on all C and U
B8: IGEL3.1 (ssRNA)
RNA: GGGAGGACGAUGCGGUCCAUCGAUUAGGCGGUCGUGCUGGUGUAGUGUGUAGUGGCAGACGACUCGCCCGA
modifications: 2'-NH2 on all C and U
B9: IGEL49.1 (ssRNA)
RNA: GGGAGGACGAUGCGGGUGUGGGGCGGAUAAUGAGUGAACAGAGUGAAAUUCCAGUGUAGCCAGACUGUGCUGUCGCAGACGACUCGCCCGA
modifications: 2'-NH2 on all C and U
B10: IGEL10.1 (ssRNA)
RNA: GGGAGGACGAUGCGGGCCACGCGUGGUUAGGGAUCGCGGACAGCACAAAUCGAAUUUGAUUCGCACCUGGACGGUCAGACGACUCGCCCGA
modifications: 2'-NH2 on all C and U
B11: IGEL11.1 (ssRNA)
RNA: GGGAGGACGAUGCGGAACAGCACGAGUGUACCUAAGACAGGCGAUGGCACUCGUGGUCGAAAUCAUAUAGUGAUGCAGACGACUCGCCCGA
modifications: 2'-NH2 on all C and U
B12: IGEL9.1 (ssRNA)
RNA: GGGAGGACGAUGCGGGCGGGGAACAGACGGCUCAGAGCGGCACGAUUGUCAGCCAGCAAUUAUAUCGUGUUGAUGCAGACGACUCGCCCGA
modifications: 2'-NH2 on all C and U
B13: IGEL31.1 (ssRNA)
RNA: GGGAGGACGAUGCGGGUGUGAAUGGUGUUGUGAGGUUCUCGACUGUUUGUGUCUAGCCGUACUUUAGCCUCGGCCAGACGACUCGCCCGA
modifications: 2'-NH2 on all C and U
B14: IGEL29.1 (ssRNA)
RNA: GGGAGGACGAUGCGGGUGUCAAUGGUGUUGCGAGGCAAAAAUAACCAGCGCAUAUUCUCGGCCAUGUUGGCGUGCAUACAGACGACUCGCCCGA
modifications: 2'-NH2 on all C and U
B15: IGEL1.1 (ssRNA)
RNA: GGGAGGACGAUGCGGGUGUGAAUGGUGUUGUGAGGUUACUGUACUUCGGUGGCUGCAGACGACUCGCCCGA
modifications: 2'-NH2 on all C and U
B16: IGEL2.1 (ssRNA)
RNA: GGGAGGACGAUGCGGGUGUGGGGCGAAUGAGAAACGUUACCAGGAAAUGCGACUGCAGACGACUCGCCCGA
modifications: 2'-NH2 on all C and U
B17: IGEL4.1 (ssRNA)
RNA: GGGAGGACGAUGCGGACGGUAGUCUGGUAGGCGCUGUGACGGCGAGAAUCCGGACCAGACGACUCGCCCGA
modifications: 2'-NH2 on all C and U
B18: IGEL5.1 (ssRNA)
RNA: GGGAGGACGAUGCGGGUAUCGGUACGUGUUGGCUUGGGAAGGGGUCCGACGGUGCAGACGACUCGCCCGA
modifications: 2'-NH2 on all C and U

Molecular target: T1, TAN IgE (chimeric: murine light chains and variable region, human heavy-chain constant region) (Mus musculus/Homo sapiens chimera, UniProt P01854-1 P01854-1:1-428)
T1 chain: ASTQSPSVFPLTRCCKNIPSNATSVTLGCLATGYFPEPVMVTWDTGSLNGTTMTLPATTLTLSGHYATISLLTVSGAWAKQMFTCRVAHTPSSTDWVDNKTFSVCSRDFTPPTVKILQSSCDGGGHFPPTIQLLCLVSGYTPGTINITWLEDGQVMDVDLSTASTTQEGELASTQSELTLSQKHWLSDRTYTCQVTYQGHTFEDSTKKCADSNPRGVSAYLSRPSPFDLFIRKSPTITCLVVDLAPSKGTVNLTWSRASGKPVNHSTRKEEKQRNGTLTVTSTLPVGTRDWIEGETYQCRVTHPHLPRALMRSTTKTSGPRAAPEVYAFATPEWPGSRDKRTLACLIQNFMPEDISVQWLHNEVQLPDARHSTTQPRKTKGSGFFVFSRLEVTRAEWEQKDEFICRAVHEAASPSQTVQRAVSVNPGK
Experiment: inhibition; inhibits IgE binding to FceRI on RBL SX-38 cells, ELISA
Details: tags: biotinylated in the receptor assay; gift of Dr. Kinet (NIH); chain copies: 2; label: 5' 32P; hairpin
Procedure: A cell-based enzyme linked immunosorbent assay (ELISA) was used to measure the ability of the high-affinity DNA ligands to inhibit binding of IgE to the FcεRI receptor. Rat basophilic leukemia (RBL) cell-line SX-38 which expresses the α, β and γ subunits of the human FcεRI receptor was plated at a concentration of 10^5 cells per well in 96 well flat-bottom microtiter plates. After overnight growth, the cells were washed three times in modified PBS and incubated for one hour at 37° C. in 30 µl of 1.5 µg/ml biotinylated TAN IgE. The cells were washed 3 more times and incubated in 30 µl of 1/100 dilution of horseradish peroxidase (Molecular Probes, Eugene, Oreg.) conjugated to avidin for one hour at 37° C. After three final washes, 30 µl of 3,3',5,5'-tetramethylbenzidine (TMB) substrate, (Kirkegaard and Perry Laboratories, Gaithersburg, Md.) were added as a chromogenic substrate, and the plate was immediately transferred to the microtiter plate reader (Bio-Tek instruments, Winooski, Vt.) for analysis. The absorbance at 630 nm was measured every 60 seconds over a time span of 15 minutes. The rate of color development is an indication of the extent of IgE binding to the FcεRI receptor and was determined from the linear part of absorbance versus time graphs (data not shown). […] The inhibition activities of the RNA ligands were determined using the following formula: […]

For GGGGCACGTTTATCCGTCCCTCCTAGTGGCGTGCCCC (ssDNA) [D17.4], the Ki was ~40 nM.

Same assay, conditions: tags: biotinylated in the receptor assay; gift of Dr. Kinet (NIH); chain copies: 2; label: 5' 32P; stem-loop

In the case of B1, the Ki is reported as ~40 nM.

molecular target: T2, human IgE (Homo sapiens, UniProt P01854-1 P01854-1:1-428); experiment: filter; modified PBS, 1 mM Mg2+, 37 C; details: tags: Athens Research Technology; chain copies: 2; label: 5' 32P; hairpin
Procedure: Affinities of representative DNA ligands for human IgE were determined by nitrocellulose filter binding experiments and the K_Ds are listed in Table 7. […] Individual clones tested from this pool have affinities in the same range. The affinities were not expected to vary widely since the enriched DNA pool is very homogenous. Ligand D17.0 was picked for truncation experiments. […] However, the affinity could be restored to the level of the full-length ligand by the addition of a 4 basepair stem resulting in the 37 base truncate D17.4. It is possible that the stem in D17.1 is not stable enough to prevent the formation of an alternative secondary structure and that the additional base pair in D17.4 lock in the conformation necessary for IgE binding.

Point of comparison: CACGTTTATCCGTCCCTCCTAGTGGCGTG (ssDNA) [D17.1], Kd 82 nM. Against it:
- GGGGCACGTTTATCCGTCCCTCCTAGTGGCGTGCCCC (ssDNA) [D17.4] — 8.2-fold lower, 10 nM

same assay, conditions: tags: Athens Research Technology; chain copies: 2; label: 5' 32P; stem-loop

In the case of B1, the Kd is reported as 9 nM.

molecular target: T2, human IgE; experiment: filter; modified PBS, 1 mM Mg2+, 37 C; details: tags: Athens Research Technology; chain copies: 2; label: 32P

Point of comparison: B5, Kd 50 nM. Against it:
- GGGAGGACGAUGCGGGUGUGGGGCG (ssRNA, 2'-NH2 on all C and U) [IGEL2.2] — within 1.5-fold, 44 nM
- B2 — 2.8-fold higher, 142 nM
- B3 — 4.5-fold higher, 225 nM
- B4 — 3.7-fold higher, 186 nM
- GGGAGGACGAUGCGGGUGUGAAUGGUGUUGUGAGG (ssRNA, 2'-NH2 on all C and U) [IGEL1.2] — 2.6-fold lower, 19 nM
- B6 — 1.7-fold lower, 30 nM
- B7 — within 1.5-fold, 34 nM
- B8 — within 1.5-fold, 56 nM
- B9 — within 1.5-fold, 39 nM
- B10 — within 1.5-fold, 69 nM
- B11 — 2.6-fold higher, 129 nM
- B12 — 2.1-fold higher, 105 nM
- B13 — 2.7-fold higher, 134 nM
- B14 — 2.8-fold higher, 141 nM
- B15 — 2.8-fold higher, 138 nM
- B16 — within 1.5-fold, 41 nM
- B17 — 1.7-fold higher, 87 nM
- B18 — 2.9-fold higher, 145 nM

Molecular target: T1, TAN IgE (chimeric: murine light chains …)
Experiment: filter; modified PBS, 1 mM Mg2+, 37 C
Details: tags: biotinylated in the receptor assay; gift of Dr. Kinet (NIH); chain copies: 2; label: 32P
Procedure: To test the specificity of the high-affinity interaction between the RNA ligands and human IgE, binding experiments were performed with different immunoglobulins as described in Example 1.
In order to localize which part of the IgE molecule the RNA ligands are contacting, binding experiments were carried out with a hybrid IgE molecule. The light chains and the variable region of this TAN IgE are murine derived, whereas the constant portion of the heavy chains are human.

Point of comparison: B15, Kd 77 nM. Against it:
- GGGAGGACGAUGCGGGUGUGAAUGGUGUUGUGAGG (ssRNA, 2'-NH2 on all C and U) [IGEL1.2] — 2.1-fold lower, 36 nM

Molecular target: T1, TAN IgE (chimeric: murine light chains …)
Experiment: inhibition; inhibits IgE binding to FceRI on RBL SX-38 cells, ELISA
Details: tags: biotinylated in the receptor assay; gift of Dr. Kinet (NIH); chain copies: 2; label: 32P
Procedure: Rat basophilic leukemia (RBL) cell-line SX-38 which expresses the α, β and γ subunits of the human FcεRI IgE receptor was plated at a concentration of 10^5 cells per well in 96 well flat-bottom microtiter plates. After overnight growth, the cells were washed three times in modified PBS and incubated for one hour at 37° C. in 30 μl of 1.5 μg/ml biotinylated TAN IgE. The cells were washed 3 more times and incubated in 30 μl of 1/100 dilution of horseradish peroxidase conjugated to avidin (Molecular Probes, Eugene, Oreg.) for one hour at 37° C. After three final washes, 30 μl of 3,3',5,5'-tetramethylbenzidine (TMB) substrate (Kirkegaard and Perry Laboratories, Gaithersburg, Md.) were added as a chromogenic substrate and the plate was immediately transferred to the microtiter plate reader (Bio-Tek Instruments, Winooski, Vt.) for analysis. The absorbance at 630 nm was measured every 60 sec over a time span of 15 min. The rate of color development is an indication of the extent of IgE binding to the FcεRI receptor and was determined from the linear part of absorbance versus time graphs (data not shown). […] The inhibition activities of the RNA ligands were determined using the following formula: […]

Point of comparison: B15, Ki 44 nM. Against it:
- GGGAGGACGAUGCGGGUGUGAAUGGUGUUGUGAGG (ssRNA, 2'-NH2 on all C and U) [IGEL1.2] — 2.1-fold lower, 21 nM
